5 proteins from doi:10.1101/2022.04.29.490010 (bioRxiv, 2022) can be followed below.

As a reminder, the stoichiometry N is a count of units in the complex or per binding partner.

Data set [1] deals with the molecule itself. In words: SEC. (Size exclusion chromatography separates by hydrodynamic size, large species first.)
Data set [2] deals with the molecule itself. In words: SEC-MALS.

B1: ENDOA1^WT (human Endophilin-A1, recombinant, GST tag cleaved) (natural protein, UniProt Q99962 1-352, looked up)
chain: MSVAGLKKQFHKATQKVSEKVGGAEGTKLDDDFKEMERKVDVTSRAVMEIMTKTIEYLQPNPASRAKLSMINTMSKIRGQEKGPGYPQAEALLAEAMLKFGRELGDDCNFGPALGEVGEAMRELSEVKDSLDIEVKQNFIDPLQNLHDKDLREIQHHLKKLEGRRLDFDYKKKRQGKIPDEELRQALEKFDESKEIAESSMFNLLEMDIEQVSQLSALVQAQLEYHKQAVQILQQVTVRLEERIRQASSQPRREYQPKPRMSLEFPTGDSTQPNGGLSHTGTPKPSGVQMDQPCCRALYDFEPENEGELGFKEGDIITLTNQIDENWYEGMLHGHSGFFPINYVEILVALPH
In the case of B1, the “stoichiometry N” value in data set [1] came to 2.

B2: ENDOA1^G276V (human Endophilin-A1 with the Parkinson's disease risk variant G276V, recombinant, GST tag cleaved) (natural protein, UniProt Q99962 1-352, looked up)
chain: MSVAGLKKQFHKATQKVSEKVGGAEGTKLDDDFKEMERKVDVTSRAVMEIMTKTIEYLQPNPASRAKLSMINTMSKIRGQEKGPGYPQAEALLAEAMLKFGRELGDDCNFGPALGEVGEAMRELSEVKDSLDIEVKQNFIDPLQNLHDKDLREIQHHLKKLEGRRLDFDYKKKRQGKIPDEELRQALEKFDESKEIAESSMFNLLEMDIEQVSQLSALVQAQLEYHKQAVQILQQVTVRLEERIRQASSQPRREYQPKPRMSLEFPTGDSTQPNGVLSHTGTPKPSGVQMDQPCCRALYDFEPENEGELGFKEGDIITLTNQIDENWYEGMLHGHSGFFPINYVEILVALPH
In the case of B2, in data set [1], the “stoichiometry N” value is 2.

B3: EndoA wild type (Drosophila Endophilin-A, GST tag cleaved) (natural protein, UniProt Q8T390 1-369, looked up)
chain: MAFAGLKKQINKANQYMTEKMGGAEGTKLDMDFMEMERKTDVTVELVEELQLKTKEFLQPNPTARAKMAAVKGISKLSGQAKSNTYPQPEGLLAECMLTYGKKLGEDNSVFAQALVEFGEALKQMADVKYSLDDNIKQNFLEPLHHMQTKDLKEVMHHRKKLQGRRLDFDCKRRRQAKDDEIRGAEDKFGESLQLAQVGMFNLLENDTEHVSQLVTFAEALYDFHSQCADVLRGLQETLQEKRSEAESRPRNEFVPKTLLDLNLDGGGGGLNEDGTPSHISSSASPLPSPMRSPAKSMAVTPQRQQQPCCQALYDFEPENPGELAFKENDIITLLNRVDDNWFEGAVNGRTGYFPQSYVQVQVPLPNGN
On to B3, for which, in data set [2], the “stoichiometry N” value came to 2.

B4: EndoA^D265A (Drosophila Endophilin-A D265A, GST tag cleaved) (natural protein, UniProt Q8T390 1-369, looked up)
chain: MAFAGLKKQINKANQYMTEKMGGAEGTKLDMDFMEMERKTDVTVELVEELQLKTKEFLQPNPTARAKMAAVKGISKLSGQAKSNTYPQPEGLLAECMLTYGKKLGEDNSVFAQALVEFGEALKQMADVKYSLDDNIKQNFLEPLHHMQTKDLKEVMHHRKKLQGRRLDFDCKRRRQAKDDEIRGAEDKFGESLQLAQVGMFNLLENDTEHVSQLVTFAEALYDFHSQCADVLRGLQETLQEKRSEAESRPRNEFVPKTLLDLNLAGGGGGLNEDGTPSHISSSASPLPSPMRSPAKSMAVTPQRQQQPCCQALYDFEPENPGELAFKENDIITLLNRVDDNWFEGAVNGRTGYFPQSYVQVQVPLPNGN
For the protein B4, in data set [2], the “stoichiometry N” value is 2.

B5: EndoA^D265R (Drosophila Endophilin-A D265R, GST tag cleaved) (natural protein, UniProt Q8T390 1-369, looked up)
chain: MAFAGLKKQINKANQYMTEKMGGAEGTKLDMDFMEMERKTDVTVELVEELQLKTKEFLQPNPTARAKMAAVKGISKLSGQAKSNTYPQPEGLLAECMLTYGKKLGEDNSVFAQALVEFGEALKQMADVKYSLDDNIKQNFLEPLHHMQTKDLKEVMHHRKKLQGRRLDFDCKRRRQAKDDEIRGAEDKFGESLQLAQVGMFNLLENDTEHVSQLVTFAEALYDFHSQCADVLRGLQETLQEKRSEAESRPRNEFVPKTLLDLNLRGGGGGLNEDGTPSHISSSASPLPSPMRSPAKSMAVTPQRQQQPCCQALYDFEPENPGELAFKENDIITLLNRVDDNWFEGAVNGRTGYFPQSYVQVQVPLPNGN
As for B5, the “stoichiometry N” value in data set [2] was 2.
